Results taken from patent US10941182 (Amgen, dated 2021).
Starred links: 1 amine or outer side, 2 acyl side, 3 side chain; linkers in the order of their positions; H or OH if unused. Non-standard residues stand in square brackets, D forms with d. Primed or numbered codes have the meaning given here. *: point of attachment. AC4Abu = α-carboxy-4-aminobutyric acid, O=C(C(CCN[*:1])C(=O)[*:3])[*:2]; Oic = O=C(O)[C@@H]1C[C@@H]2CCCC[C@@H]2N1; Phe(4-Cl) = N[C@@H](Cc1ccc(Cl)cc1)C(=O)O; Phe(4-F) = N[C@@H](Cc1ccc(F)cc1)C(=O)O; γGlu = O=C(O)[C@H](CCC(=O)[*:2])N[*:1]; d(β3hF) = N[C@@H](CC(=O)O)Cc1ccccc1; Igl = N[C@H](C(=O)O)C1Cc2ccccc2C1; NMeR = CN[C@@H](CCCNC(=N)N)C(=O)O; Palmitoyl = CCCCCCCCCCCCCCCC(=O)*; 3Pal = N[C@@H](Cc1cccnc1)C(=O)O; Cha = N[C@@H](CC1CCCCC1)C(=O)O; αMeOrn = C[C@](N)(CCCN)C(=O)O; β3hP = O=C(O)C[C@@H]1CCCN1; Nle = CCCC[C@H](N)C(=O)O; Dab = NCC[C@H](N)C(=O)O; Pip′ = not defined here; Dap = NC[C@H](N)C(=O)O; AEEA = NCCOCCOCC(=O)O; Aib = CC(C)(N)C(=O)O; NPrGly = CCCNCC(=O)O

Experiments:
rat APJ receptor = biological target: T1, rat APJ receptor (rat, UniProt Q9JHG3 1-377); experiment: cell-based or functional assay
T1 sequence (looked up): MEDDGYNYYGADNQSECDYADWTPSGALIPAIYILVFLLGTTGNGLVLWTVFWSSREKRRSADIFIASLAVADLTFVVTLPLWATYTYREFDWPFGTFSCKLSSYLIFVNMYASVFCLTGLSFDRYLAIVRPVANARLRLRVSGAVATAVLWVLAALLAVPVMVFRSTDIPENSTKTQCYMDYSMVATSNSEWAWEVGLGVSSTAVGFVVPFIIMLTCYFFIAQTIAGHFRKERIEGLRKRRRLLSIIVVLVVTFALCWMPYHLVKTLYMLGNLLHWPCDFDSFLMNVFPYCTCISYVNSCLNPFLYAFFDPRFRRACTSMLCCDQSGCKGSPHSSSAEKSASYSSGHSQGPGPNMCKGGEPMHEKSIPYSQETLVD

human APJ receptor = biological target: T2, human APJ receptor (human, UniProt P35414 1-380); experiment: cell-based or functional assay
T2 sequence (looked up): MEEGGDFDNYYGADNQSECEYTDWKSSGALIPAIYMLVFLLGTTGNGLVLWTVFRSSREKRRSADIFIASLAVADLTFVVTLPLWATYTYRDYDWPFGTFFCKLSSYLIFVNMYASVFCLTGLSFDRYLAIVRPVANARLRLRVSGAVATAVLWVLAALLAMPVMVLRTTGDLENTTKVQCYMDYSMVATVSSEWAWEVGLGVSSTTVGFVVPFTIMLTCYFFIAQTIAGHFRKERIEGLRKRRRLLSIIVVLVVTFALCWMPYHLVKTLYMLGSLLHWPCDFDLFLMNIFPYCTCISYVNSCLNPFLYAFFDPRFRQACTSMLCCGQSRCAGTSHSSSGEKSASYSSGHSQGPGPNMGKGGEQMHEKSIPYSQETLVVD

Binder | EC50 Rat APJ Receptor (rat APJ receptor) [nM] | EC50 Human APJ Receptor (human APJ receptor) [nM]
Palmitoyl-[γGlu][AEEA][AEEA][dQ]RP[NMeR][Cha]SH[Dap]G[Oic][Nle][β3hP][d(β3hF)]-OH (SMILES CCCCCCCCCCCCCCCC(=O)N[C@@H](CCC(=O)NCCOCCOCC(=O)NCCOCCOCC(=O)N[C@H](CCC(N)=O)C(=O)N[C@@H](CCCNC(=N)N)C(=O)N1CCC[C@H]1C(=O)N(C)[C@@H](CCCNC(=N)N)C(=O)N[C@@H](CC1CCCCC1)C(=O)N[C@@H](CO)C(=O)N[C@@H](Cc1c[nH]cn1)C(=O)N[C@@H](CN)C(=O)NCC(=O)N1[C@H](C(=O)N[C@@H](CCCC)C(=O)N2CCC[C@H]2CC(=O)N[C@@H](CC(=O)O)Cc2ccccc2)C[C@@H]2CCCC[C@@H]21)C(=O)O) [SEQ ID NO: 624] | 99.7 | 21.1
Palmitoyl-[γGlu][AEEA][AEEA][dQ]RP[NMeR][Cha]SH[3Pal]G[Oic][Nle][β3hP][d(β3hF)]-OH (SMILES CCCCCCCCCCCCCCCC(=O)N[C@@H](CCC(=O)NCCOCCOCC(=O)NCCOCCOCC(=O)N[C@H](CCC(N)=O)C(=O)N[C@@H](CCCNC(=N)N)C(=O)N1CCC[C@H]1C(=O)N(C)[C@@H](CCCNC(=N)N)C(=O)N[C@@H](CC1CCCCC1)C(=O)N[C@@H](CO)C(=O)N[C@@H](Cc1c[nH]cn1)C(=O)N[C@@H](Cc1cccnc1)C(=O)NCC(=O)N1[C@H](C(=O)N[C@@H](CCCC)C(=O)N2CCC[C@H]2CC(=O)N[C@@H](CC(=O)O)Cc2ccccc2)C[C@@H]2CCCC[C@@H]21)C(=O)O) [SEQ ID NO: 620] | 14.9 | 7.42
Palmitoyl-[γGlu][AEEA][AEEA][dQ]RP[NMeR][Cha]SH[Phe(4-Cl)]G[Oic][Nle][β3hP][d(β3hF)]-OH (SMILES CCCCCCCCCCCCCCCC(=O)N[C@@H](CCC(=O)NCCOCCOCC(=O)NCCOCCOCC(=O)N[C@H](CCC(N)=O)C(=O)N[C@@H](CCCNC(=N)N)C(=O)N1CCC[C@H]1C(=O)N(C)[C@@H](CCCNC(=N)N)C(=O)N[C@@H](CC1CCCCC1)C(=O)N[C@@H](CO)C(=O)N[C@@H](Cc1c[nH]cn1)C(=O)N[C@@H](Cc1ccc(Cl)cc1)C(=O)NCC(=O)N1[C@H](C(=O)N[C@@H](CCCC)C(=O)N2CCC[C@H]2CC(=O)N[C@@H](CC(=O)O)Cc2ccccc2)C[C@@H]2CCCC[C@@H]21)C(=O)O) [SEQ ID NO: 621] | 26.1 | 16.4
Palmitoyl-[γGlu][AEEA][AEEA][dQ]RP[NMeR][Cha]SH[Dab]G[Oic][Nle][β3hP][d(β3hF)]-OH (SMILES CCCCCCCCCCCCCCCC(=O)N[C@@H](CCC(=O)NCCOCCOCC(=O)NCCOCCOCC(=O)N[C@H](CCC(N)=O)C(=O)N[C@@H](CCCNC(=N)N)C(=O)N1CCC[C@H]1C(=O)N(C)[C@@H](CCCNC(=N)N)C(=O)N[C@@H](CC1CCCCC1)C(=O)N[C@@H](CO)C(=O)N[C@@H](Cc1c[nH]cn1)C(=O)N[C@@H](CCN)C(=O)NCC(=O)N1[C@H](C(=O)N[C@@H](CCCC)C(=O)N2CCC[C@H]2CC(=O)N[C@@H](CC(=O)O)Cc2ccccc2)C[C@@H]2CCCC[C@@H]21)C(=O)O) [SEQ ID NO: 623] | 9.16 | 1.43
Palmitoyl-[γGlu][AEEA][AEEA][dQ]RP[NMeR][Cha]S[Dap]KG[Oic][Nle][β3hP][d(β3hF)]-OH (SMILES CCCCCCCCCCCCCCCC(=O)N[C@@H](CCC(=O)NCCOCCOCC(=O)NCCOCCOCC(=O)N[C@H](CCC(N)=O)C(=O)N[C@@H](CCCNC(=N)N)C(=O)N1CCC[C@H]1C(=O)N(C)[C@@H](CCCNC(=N)N)C(=O)N[C@@H](CC1CCCCC1)C(=O)N[C@@H](CO)C(=O)N[C@@H](CN)C(=O)N[C@@H](CCCCN)C(=O)NCC(=O)N1[C@H](C(=O)N[C@@H](CCCC)C(=O)N2CCC[C@H]2CC(=O)N[C@@H](CC(=O)O)Cc2ccccc2)C[C@@H]2CCCC[C@@H]21)C(=O)O) [SEQ ID NO: 616] | 17.2 | 2.75
Palmitoyl-[γGlu][AEEA][AEEA][dQ]RP[NMeR][Cha]SH[Igl]G[Oic][Nle][β3hP][d(β3hF)]-OH (SMILES CCCCCCCCCCCCCCCC(=O)N[C@@H](CCC(=O)NCCOCCOCC(=O)NCCOCCOCC(=O)N[C@H](CCC(N)=O)C(=O)N[C@@H](CCCNC(=N)N)C(=O)N1CCC[C@H]1C(=O)N(C)[C@@H](CCCNC(=N)N)C(=O)N[C@@H](CC1CCCCC1)C(=O)N[C@@H](CO)C(=O)N[C@@H](Cc1c[nH]cn1)C(=O)N[C@H](C(=O)NCC(=O)N1[C@H](C(=O)N[C@@H](CCCC)C(=O)N2CCC[C@H]2CC(=O)N[C@@H](CC(=O)O)Cc2ccccc2)C[C@@H]2CCCC[C@@H]21)C1Cc2ccccc2C1)C(=O)O) [SEQ ID NO: 625] | 20 | 11.1
Palmitoyl-[γGlu][AEEA][AEEA][dQ]RP[NMeR][Cha]SH[Phe(4-F)]G[Oic][Nle][β3hP][d(β3hF)]-OH (SMILES CCCCCCCCCCCCCCCC(=O)N[C@@H](CCC(=O)NCCOCCOCC(=O)NCCOCCOCC(=O)N[C@H](CCC(N)=O)C(=O)N[C@@H](CCCNC(=N)N)C(=O)N1CCC[C@H]1C(=O)N(C)[C@@H](CCCNC(=N)N)C(=O)N[C@@H](CC1CCCCC1)C(=O)N[C@@H](CO)C(=O)N[C@@H](Cc1c[nH]cn1)C(=O)N[C@@H](Cc1ccc(F)cc1)C(=O)NCC(=O)N1[C@H](C(=O)N[C@@H](CCCC)C(=O)N2CCC[C@H]2CC(=O)N[C@@H](CC(=O)O)Cc2ccccc2)C[C@@H]2CCCC[C@@H]21)C(=O)O) [SEQ ID NO: 622] | 19.7 | 11.8
Palmitoyl-[AC4Abu][AEEA][AEEA][dQ]RP[NMeR][Cha]S[NPrGly]KG[Pip′][Nle][Aib][Phe(4-Cl)]-OH [SEQ ID NO: 644] | 4.2 | 1.4
Palmitoyl-[γGlu][AEEA][AEEA][dQ]RP[NMeR][Cha]SH[αMeOrn]G[Oic][Nle][β3hP][d(β3hF)]-OH (SMILES CCCCCCCCCCCCCCCC(=O)N[C@@H](CCC(=O)NCCOCCOCC(=O)NCCOCCOCC(=O)N[C@H](CCC(N)=O)C(=O)N[C@@H](CCCNC(=N)N)C(=O)N1CCC[C@H]1C(=O)N(C)[C@@H](CCCNC(=N)N)C(=O)N[C@@H](CC1CCCCC1)C(=O)N[C@@H](CO)C(=O)N[C@@H](Cc1c[nH]cn1)C(=O)N[C@@](C)(CCCN)C(=O)NCC(=O)N1[C@H](C(=O)N[C@@H](CCCC)C(=O)N2CCC[C@H]2CC(=O)N[C@@H](CC(=O)O)Cc2ccccc2)C[C@@H]2CCCC[C@@H]21)C(=O)O) [SEQ ID NO: 619] | 125 | 26.2
